From patent US20230220042A1 (SHANGHAI JIAO TONG UNIVERSITY SCHOOL OF MEDICINE, published 2023)
Changes are numbered by the printed parent chain. Numbers in names are those of the source.

T1: FcγRIIB (human, UniProt P31994 43-217, biotin-labeled)
T1 construct: extracellular domain; Bought protein; also called CD32b
T1 sequence (looked up): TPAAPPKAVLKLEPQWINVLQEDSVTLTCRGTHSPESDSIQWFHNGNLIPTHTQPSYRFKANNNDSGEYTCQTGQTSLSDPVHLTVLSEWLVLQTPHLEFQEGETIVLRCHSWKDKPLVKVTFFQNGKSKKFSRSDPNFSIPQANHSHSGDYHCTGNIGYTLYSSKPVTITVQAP

T2: FcγRIIA^131R (human, UniProt P12318 34-217, biotin-labeled)
T2 construct: extracellular domain; Bought protein; also called RIIAR
T2 sequence (looked up): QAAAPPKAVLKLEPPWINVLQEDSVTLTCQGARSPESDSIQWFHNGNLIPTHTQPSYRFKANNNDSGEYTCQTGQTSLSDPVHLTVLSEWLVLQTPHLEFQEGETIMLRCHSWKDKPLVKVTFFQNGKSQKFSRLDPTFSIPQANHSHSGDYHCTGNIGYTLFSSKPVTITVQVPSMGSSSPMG

T3: FcγRIIA^131H (human, UniProt P12318 34-217, biotin-labeled)
T3 construct: extracellular domain; Bought protein; also called RIIAH
T3 sequence (looked up): T2 sequence (looked up) with R134H

B1: anti-human OX40 IgG2 antibody Mut_15 (V234Q/A235G/P238L/S239V/G327A/L328E/A330S/I332T) (antibody)
heavy: QVQLQESGPGLVKPSGTLSLTCAVSGGSISSSIWWSWVRQPPGKGLEWIGEIHHSGNTNCNPSLKSRVTISIDKSKNQFSLKLTSVTAADTAVYYCARAGTGTTLDYWGQGTLVTVSSASTKGPSVFPLAPCSRSTSESTAALGCLVKDYFPEPVTVSWNSGALTSGVHTFPAVLQSSGLYSLSSVVTVPSSNFGTQTYTCNVDHKPSNTKVDKTVERKCCVECPPCPAPPQGGLVVFLFPPKPKDTLMISRTPEVTCVVVDVSHEDPEVQFNWYVDGVEVHNAKTKPREEQFNSTFRVVSVLTVVHQDWLNGKEYKCKVSNKAEPSPTEKTISKTKGQPREPQVYTLPPSREEMTKNQVSLTCLVKGFYPSDIAVEWESNGQPENNYKTTPPMLDSDGSFFLYSKLTVDKSRWQQGNVFSCSVMHEALHNHYTQKSLSLSPGK
light: EIVLTQSPGTLSLSPGERATLSCRASQSVSGDYLAWYQQKLGQAPRLLIYGASIRATGIPDRFSGSGSGTDFTLTISKLEPEDFAVYYCQQYGSSPLTFGGGTKVEIKRTVAAPSVFIFPPSDEQLKSGTASVVCLLNNFYPREAKVQWKVDNALQSGNSQESVTEQDSKDSTYSLSSTLTLSKADYEKHKVYACEVTHQGLSSPVTKSFNRGEC
notes: Substitutions in Eu numbering; entries include an unstated signal peptide
B2: anti-human OX40 IgG2 antibody Mut_21 (S267V/S298G/L328W) (antibody, name in EU numbering)
heavy: B1 heavy with Q232V, G233A, L235P, V236S, S264V, S295G, A324G, E325W, S327A, T329I
light: B1 light
notes: as for B1
B3: anti-human OX40 IgG2 antibody Mut_16 (S267E/S298G) (antibody, name in EU numbering)
heavy: B1 heavy with Q232V, G233A, L235P, V236S, S264E, S295G, A324G, E325L, S327A, T329I
light: B1 light
notes: as for B1
B4: anti-human OX40 IgG2 antibody Mut_17 (V266L/S267E/H268S/E269V) (antibody, name in EU numbering)
heavy: QVQLQESGPGLVKPSGTLSLTCAVSGGSISSSIWWSWVRQPPGKGLEWIGEIHHSGNTNCNPSLKSRVTISIDKSKNQFSLKLTSVTAADTAVYYCARAGTGTTLDYWGQGTLVTVSSASTKGPSVFPLAPCSRSTSESTAALGCLVKDYFPEPVTVSWNSGALTSGVHTFPAVLQSSGLYSLSSVVTVPSSNFGTQTYTCNVDHKPSNTKVDKTVERKCCVECPPCPAPPVAGPSVFLFPPKPKDTLMISRTPEVTCVVVDLESVDPEVQFNWYVDGVEVHNAKTKPREEQFNSTFRVVSVLTVVHQDWLNGKEYKCKVSNKGLPAPIEKTISKTKGQPREPQVYTLPPSREEMTKNQVSLTCLVKGFYPSDIAVEWESNGQPENNYKTTPPMLDSDGSFFLYSKLTVDKSRWQQGNVFSCSVMHEALHNHYTQKSLSLSPGK
light: B1 light
notes: as for B1
B5: anti-human OX40 IgG2 antibody Mut_23 (V266L/S267E/E269K/P271G) (antibody, name in EU numbering)
heavy: B4 heavy with S265H, V266K, P268G
light: B1 light
notes: as for B1
B6: anti-human OX40 IgG2 antibody Mut_20 (V266L/S267E/H268S/E269A/P271C) (antibody, name in EU numbering)
heavy: B4 heavy with V266A, P268C
light: B1 light
notes: as for B1
B7: anti-human OX40 IgG2 antibody Mut_24 (V266L/S267E/H268S/E269G/P271T) (antibody, name in EU numbering)
heavy: B4 heavy with V266G, P268T
light: B1 light
notes: as for B1
B8: anti-human OX40 IgG2 antibody Mut_22 (V266L/S267M/H268E/P271Q) (antibody, name in EU numbering)
heavy: B4 heavy with E264M, S265E, V266E, P268Q
light: B1 light
notes: as for B1
B9: anti-human OX40 IgG2 antibody Mut_18 (P233G/S267E) (antibody)
heavy: B4 heavy with P231G, L263V, S265H, V266E
light: B1 light
notes: as for B1
B10: anti-human OX40 IgG2 antibody Mut_19 (V266L/S267E/H268S/E269V/P271C) (antibody, name in EU numbering)
heavy: B4 heavy with P268C
light: B1 light
notes: as for B1

molecular target: T1, FcγRIIB; test: ELISA; relative affinity to FcγRIIB over that to FcγRIIA131R
Description: One hundred μl (2 μg/mL) of antibody or mutant thereof were added to the enzyme-linked plate to be coated overnight, then the supernatant was discarded. The plate was blocked with PBS containing 1% BSA for 2 hours, and washed with PBST (PBS containing 0.05% Tween 20). Biotin-labeled FcγR extracellular domain protein (Beijing Sino Biological Co., Ltd) of appropriate concentration was added and incubated at room temperature for 1 hour, then the supernatant was discarded and the plate was washed with PBST. The Biotin-labeled protein was detected by incubating with Streptavidin-HRP (BD BioSciences) at room temperature for 1 hour. The supernatant was removed, and the color-developing solution was added for color development for 20-40 minutes to determine the absorbance of 650 nm (A650).
Anti-human OX40 antibodies containing these new Fc mutation combinations are expressed and the binding property of the mutant antibody to FcγR are analyzed by Enzyme-linked immunosorbent assay (ELISA).

RIIB/RIIAR [ratio] | Binder
3.67 | B1
1.03 | B2
0.75 | B3
0.83 | B4
0.9 | B5
0.85 | B6
0.98 | B7
1.05 | B8
1.03 | B9
1 | B10

molecular target: T2, FcγRIIA^131R; test: ELISA, coated antibody, biotin-FcγR;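 for Absorbance value: antibody coated at 2 µg/mL at 100 µL per well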

Absorbance value [A650] | Relative binding affinity RIIAR/G1 [ratio] | Binder
0.04 | 0.17 | B1
0.11 | 0.41 | B2
0.5 | 1.92 | B3
0.5 | 1.9 | B4
0.38 | 1.44 | B5
0.46 | 1.76 | B6
0.35 | 1.35 | B7
0.31 | 1.17 | B8
0.26 | 1 | B9
0.28 | 1.08 | B10

molecular target: T4, FcγRIIIA^158V (human, UniProt P08637 17-208, biotin-labeled); test: ELISA, coated antibody, biotin-FcγR;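 for Absorbance value: antibody coated at 2 µg/mL at 100 µL per well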
T4 construct: extracellular domain; Bought protein; also called RIIIAV; CD16a 158V
T4 sequence (P08637 17-208 F176V): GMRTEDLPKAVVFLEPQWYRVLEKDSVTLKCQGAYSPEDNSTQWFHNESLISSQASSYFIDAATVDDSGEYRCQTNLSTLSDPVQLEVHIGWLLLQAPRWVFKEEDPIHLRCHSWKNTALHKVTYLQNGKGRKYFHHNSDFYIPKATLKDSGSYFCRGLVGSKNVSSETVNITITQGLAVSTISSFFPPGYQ

Absorbance value [A650] | Relative binding affinity RIIIAV/G1 [ratio] | Binder
0.05 | 0.06 | B1
0.06 | 0.06 | B2
0.06 | 0.06 | B3
0.06 | 0.06 | B4
0.06 | 0.06 | B5
0.05 | 0.06 | B6
0.08 | 0.08 | B7
0.07 | 0.07 | B8
0.08 | 0.09 | B9
0.07 | 0.07 | B10

molecular target: T5, FcγRI (human, UniProt P12314 16-292, biotin-labeled); test: ELISA, coated antibody, biotin-FcγR;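 for Absorbance value: antibody coated at 2 µg/mL at 100 µL per well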
T5 construct: extracellular domain; Bought protein; also called CD64
T5 sequence (P12314 16-292): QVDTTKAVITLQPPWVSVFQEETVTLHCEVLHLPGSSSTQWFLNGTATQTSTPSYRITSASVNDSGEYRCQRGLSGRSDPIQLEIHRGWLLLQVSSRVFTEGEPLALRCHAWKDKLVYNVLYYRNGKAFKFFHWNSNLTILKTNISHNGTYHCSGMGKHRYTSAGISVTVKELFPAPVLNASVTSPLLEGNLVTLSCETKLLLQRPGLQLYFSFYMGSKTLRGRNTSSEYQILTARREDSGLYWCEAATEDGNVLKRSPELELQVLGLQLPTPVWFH

Absorbance value [A650] | Relative binding affinity RI/G1 [ratio] | Binder
0.08 | 0.03 | B1
0.16 | 0.06 | B2
0.1 | 0.04 | B3
0.14 | 0.05 | B4
0.11 | 0.04 | B5
0.12 | 0.05 | B6
0.12 | 0.05 | B7
0.12 | 0.05 | B8
0.14 | 0.05 | B9
0.11 | 0.04 | B10

molecular target: T3, FcγRIIA^131H; test: ELISA, coated antibody, biotin-FcγR;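 for Absorbance value: antibody coated at 2 µg/mL at 100 µL per well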

Absorbance value [A650] | Relative binding affinity RIIAH/G1 [ratio] | Binder
0.04 | 0.07 | B1
0.09 | 0.16 | B2
0.39 | 0.68 | B3
0.54 | 0.95 | B4
0.43 | 0.75 | B5
0.48 | 0.85 | B6
0.48 | 0.84 | B7
0.33 | 0.57 | B8
0.38 | 0.67 | B9
0.33 | 0.58 | B10

molecular target: T6, FcγRIIIA^158F (human, UniProt P08637 17-208, biotin-labeled); test: ELISA, coated antibody, biotin-FcγR;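 for Absorbance value: antibody coated at 2 µg/mL at 100 µL per well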
T6 construct: extracellular domain; Bought protein; also called RIIIAF
T6 sequence (P08637 17-208): as the sequence (P08637 17-208 F176V) above, with V160F counted along it

Absorbance value [A650] | Relative binding affinity RIIIAF/G1 [ratio] | Binder
0.06 | 0.31 | B1
0.06 | 0.31 | B2
0.06 | 0.32 | B3
0.09 | 0.49 | B4
0.07 | 0.35 | B5
0.06 | 0.31 | B6
0.08 | 0.42 | B7
0.06 | 0.33 | B8
0.09 | 0.47 | B9
0.07 | 0.38 | B10

molecular target: T1, FcγRIIB; test: ELISA, coated antibody, biotin-FcγR;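 for Absorbance value: antibody coated at 2 µg/mL at 100 µL per well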

Absorbance value [A650] | Increased factor of RIIB binding compared with wild-type IgG2 [fold] | Relative binding affinity RIIB/G1 [ratio] | Binder
0.47 | 6.21 | 0.62 | B1
0.32 | 4.23 | 0.42 | B2
1.09 | 14.5 | 1.44 | B3
1.19 | 15.9 | 1.58 | B4
0.97 | 13 | 1.29 | B5
1.13 | 15.1 | 1.5 | B6
1 | 13.3 | 1.32 | B7
0.93 | 12.3 | 1.22 | B8
0.78 | 10.4 | 1.04 | B9
0.82 | 11 | 1.09 | B10
